Measurements reported in patent US20180265572A1 (Bristol-Myers Squibb, published 2018).
One block for each binder: values may come before it.

Assays:
human IGF-IR-Fc fusion [1] = biological target: T1, human IGF-IR-Fc fusion (human, UniProt P08069 31-932); assay: SPR (Biacore T100), IGF-IR-Fc captured on Protein A; average over constructs; average over midscale and large scale material, with and without his tag; IGF1R
T1 construct: range 1-932; If it counts on the precursor, it includes the signal peptide; also called IGF1R-Fc; not shown: hinge and constant regions of human IgG
Description: (§1) Affinity data was also measured from midscale and large scale material, for the pegylated version of the tandem construct 385A08-Fn-V2B-cys (SEQ ID NO: 9, with and without his tag). The specific materials and methods for these calculations are described below.
(§2) An alternative method is to capture the IGF—IR-Fc on Protein A. This method was used for calculating the affinity and kinetics of certain versions of the construct 385A08-Fn-V2B-cys (both pegylated and non-pegylated and with or without his tag) from midscale and large scale materials. Specifically, IGF—IR-Fc was captured on Protein A immobilized on a Biacore CM5 sensor chip by amine coupling. VEGFR2-Fc was immobilized directly on a CM5 chip by amine coupling. The affinity and kinetic analysis involved the capture of IGF—IR-Fc on Protein A followed by injection of the tandem adnectin in solution over IGF—IR-Fc and VEGFR2-Fc. The analytical surface was regenerated between samples with glycine pH 1.5. Sensorgrams were obtained at each concentration and were evaluated using Biacore T100 evaluation software to determine the rate constants kₐ (kₒₙ) and kd (koff).

human IGF-IR-Fc fusion [2] = biological target: T1, human IGF-IR-Fc fusion; assay: SPR (Biacore T100), IGF-IR-Fc captured on Protein A; average over constructs; average over midscale and large scale material, with and without his tag; IGF1R-Fc
Description: as §1, §2

VEGFR2-Fc (R&D Systems) [3] = biological target: T2, VEGFR2-Fc (R&D Systems) (UniProt P35968 20-764); assay: SPR (Biacore T100), VEGFR2-Fc immobilised directly on a CM5 chip; average over constructs; average over midscale and large scale material, with and without his tag; VEGFR2
T2 construct: Bought reagent; not shown: Fc part of the bought fusion; not described
Description: as §1
as §2, with “The affinity and kinetic analysis involved the capture of IGF—IR-Fc on Protein A followed by injection of the tandem adnectin in solution over IGF—IR-Fc and VEGFR2-Fc. The analytical surface was regenerated between samples with glycine pH 1.5.” left out
(§3) The functionality of the V2B domain was assessed by evaluating a concentration series of the midscale and large scale purification of the tandem construct 385A08-Fn-V2B (pegylated, and non-pegylated versions, his-tag and non-his-tag versions) vs. VEGFR2-Fc that was directly immobilized on a CM5 chip surface (GE, Piscataway, N.J.). […] Varying concentrations of 385A08-Fn-V2B in the solution phase were monitored for association (2 minutes) and dissociation (10 minutes) kinetics at a flow rate of 50 uL/min. […]

VEGFR2-Fc (R&D Systems) [4] = biological target: T2, VEGFR2-Fc (R&D Systems); assay: SPR (Biacore T100), VEGFR2-Fc immobilised directly on a CM5 chip; average over constructs; average over midscale and large scale material, with and without his tag; VEGFR2-Fc
Description: as §1
as §2, with “The affinity and kinetic analysis involved the capture of IGF—IR-Fc on Protein A followed by injection of the tandem adnectin in solution over IGF—IR-Fc and VEGFR2-Fc. The analytical surface was regenerated between samples with glycine pH 1.5.” left out
as §3

human IGF-IR on cells [5] = biological target: T3, human IGF-IR on cells (human, UniProt P08069 31-1367); assay: cell-based or functional assay
[6] = biological target: VEGFR2 fusion protein on Ba/F3 cells (extracellular domain of hVEGFR2 and intracellular domain of hEpoR) (human, UniProt P35968 20-764; P19235 274-508, limits assumed); assay: cell-based or functional assay
VEGFR2-Fc (R&D Systems) [7] = biological target: T2, VEGFR2-Fc (R&D Systems); assay: SPR (Biacore), VEGFR2-Fc immobilised directly on a CM5 chip, binder in solution; V2B domain; VEGFR2-Fc
Description: (§4) The functionality of the V2B domain was assessed by evaluating a concentration series of the midscale and large scale purification of the tandem construct 385A08-Fn-V2B (pegylated, and non-pegylated versions, his-tag and non-his-tag versions) vs. VEGFR2-Fc that was directly immobilized on a CM5 chip surface (GE, Piscataway, N.J.). VEGFR2-Fc (R&D Systems, MN) was diluted to 12 ug/mL in 50 mM Acetate pH 5.0 for an immobilization level of ˜1300 RU. Varying concentrations of 385A08-Fn-V2B in the solution phase were monitored for association (2 minutes) and dissociation (10 minutes) kinetics at a flow rate of 50 uL/min. Two 30 second injections of 50 mM glycine pH 1.7 were used to regenerate the surface.

VEGFR2-Fc (R&D Systems) [8] = biological target: T2, VEGFR2-Fc (R&D Systems); assay: SPR (Biacore), VEGFR2-Fc immobilised directly on a CM5 chip, binder in solution; V2B domain; VEGFR2-Fc; average
Description: (§5) A concentration series of the midscale purification of the tandem construct 385A08-Fn-V2B (non pegylated, his-tagged version, SEQ ID NO: 8) was also evaluated. The functionality of each of the domains of this construct, specifically, the V2B domain, and the IGF-IR domain, was evaluated as described in the materials and methods section below.
as §4

human IGF-IR-Fc fusion [9] = biological target: T1, human IGF-IR-Fc fusion; assay: SPR (Biacore), IGF-IR-Fc captured on anti-human IgG, binder in solution (n of 1); IGF-IR domain; IGF-IR-Fc; n of 1
Description: as §5
Another method to assess the functionality of the IGF-IR domain is to capture the IGF—IR-Fc on anti-human IgG (GE, Piscataway, N.J.). This was done for the midscale purified construct 385A08-Fn-V2B (non-pegylated, his-tag) as described in Example 5 above. The anti-human IgG was immobilized on flow cells 1 and 2 of a CM5 chip surface according the manufacturer's instructions. 100 nM human IGF—IR-Fc was injected for 2 minutes at 10 ul/min on flow cell 2. Subsequently a concentration series of the midscale prep was injected across both flow cell surfaces at 50 uL/min. Two injections of 50 mM Glycine pH 1.7 were used to regenerate the surface.

human IGF-IR-Fc fusion [10] = biological target: T1, human IGF-IR-Fc fusion; assay: SPR (Biacore), IGF-IR-Fc captured on Protein A/G, HTPP purified binder in solution, n=1, KD approximate
human IGF-IR on cells [11] = biological target: T3, human IGF-IR on cells; assay: cell-based or functional assay; remark: listed apart in the source
human IGF-IR on cells [12] = biological target: T3, human IGF-IR on cells; assay: competitive blocking assay on R+ cells overexpressing human IGF-IR; competitor 200 nM IRDye 800CW-labelled AT580-PEG20-AT580
Description: Certain tandem constructs were evaluated for their ability to compete with mono-specific IGF-IR and VEGFR-2 binders in vitro.
R⁺, a gift from Renato Baserga (Thomas Jefferson University, Philadelphia, Pa.), is a mouse embryo fibroblast overexpressing human IGF-IR in the context of a deletion in the mouse IGF-IR gene. Cells were plated in 96 well plates at a concentration of 20,000 cells per well in DMEM (Invitrogen, Carlsbad, Calif.) containing 5% calf serum (Hyclone, Logan, Utah). The following day, cells were washed twice in serum free DMEM containing 0.1% BSA (Invitrogen, Carlsbad, Calif.). After the washes, the cells were incubated at 4° C. for 10 minutes in binding buffer (serum free DMEM+0.1% BSA) containing increasing concentrations of IGF-IR antagonists or controls. Typical controls included the mono-specific ¹⁰Fn3-based IGF-IR binder (AT580-PEG40, SEQ ID NO: 27) (positive control) or the mono-specific ¹⁰Fn3-based VEGFR2 binder (Peg-V2Bshort, SEQ ID NO: 28) (negative control). Following this brief exposure to antagonists, R⁺ cells were additionally exposed to 200 nM of a bi-valent ¹⁰Fn3-based IGF-IR binder (AT580-PEG20-AT580, SEQ ID NO: 27) labeled with IRDye 800CW according to the manufacturer instructions (Li-Cor Biosciences, Lincoln, Nebr.). […] The resulting data was analyzed using GraphPad Prism (GraphPad Software, La Jolla, Calif.).

human IGF-IR-Fc fusion [13] = biological target: T1, human IGF-IR-Fc fusion; assay: SPR (Biacore), binding to IGF-IR-Fc, n=1

B3: AT580-PEG40 (designed binder)
chain: MGVSDVPRDLEVVAATPTSLLISWSARLKVARYYRITYGETGGNSPVQEFTVPKNVYTATISGLKPGVDYTITVYAVTRFRDYQPISINYRTEIDKPCQ
modifications: 40 kDa PEG at position 98 (cysteine)
IC50 for inhibition of pIGF-1R activity, Western blot, HMVEC-L cells stimulated with VEGF and IGF-1 (human IGF-IR on cells [11]): 100 nM
IC50 (human IGF-IR on cells [12]): 600 nM

B4: AT577 (designed binder)
chain: MGVSDVPRDLEVVAATPTSLLISWSARLKVARYYRITYGETGGNSPVQEFTVPKNVYTATISGLKPGVDYTITVYAVTRFRDYQPISINYRTEIDKPSQ
Kd (human IGF-IR-Fc fusion [13]): 0.076 nM

Next, values leading:

Kd (human IGF-IR-Fc fusion [1]): 0.84 nM
koff (human IGF-IR-Fc fusion [2]): 0.000247 s⁻¹
kon (human IGF-IR-Fc fusion [2]): 315000 M⁻¹ s⁻¹
Kd (VEGFR2-Fc (R&D Systems) [3]): 10.5 nM
koff (VEGFR2-Fc (R&D Systems) [4]): 0.000102 s⁻¹
kon (VEGFR2-Fc (R&D Systems) [4]): 11500 M⁻¹ s⁻¹
B1: pegylated version of the tandem construct 385A08-Fn-V2B-cys (with and without his tag) (designed binder)
chain: MGVSDVPRDLEVVAATPTSLLISWSARLKVARYYRITYGETGGNSPVQEFTVPKNVYTATISGLKPGVDYTITVYAVTRFRDYQPISINYRTEIDKPSTSTSTVSDVPRDLEVVAATPTSLLISWRHPHFPTRYYRITYGETGGNSPVQEFTVPLQPPTATISGLKPGVDYTITVYAVTDGRNGRLLSIPISINYRTEIDKPCQ
modifications: PEG on the single cysteine at position 203
notes: also called the various constructs tested

IC50, inhibition of proliferation of Rh41 cells (n=1) (human IGF-IR on cells [5]): 26 nM
IC50, inhibition of VEGF-A dependent proliferation of Ba/F3 cells [6]: 1 nM
Kd (VEGFR2-Fc (R&D Systems) [7]): ~0.3 nM
koff (VEGFR2-Fc (R&D Systems) [8]): 0.00045 s⁻¹
kon (VEGFR2-Fc (R&D Systems) [8]): 1.4e+06 M⁻¹ s⁻¹
Kd (human IGF-IR-Fc fusion [9]): ~0.02 nM
koff (human IGF-IR-Fc fusion [9]): 0.00017 s⁻¹
kon (human IGF-IR-Fc fusion [9]): 1.1e+07 M⁻¹ s⁻¹
Kd (human IGF-IR-Fc fusion [10]): ~0.3 nM
B2: 385A08-Fn-V2B (non pegylated, his-tagged version) (designed binder)
chain: GVSDVPRDLEVVAATPTSLLISWSARLKVARYYRITYGETGGNSPVQEFTVPKNVYTATISGLKPGVDYTITVYAVTRFRDYQPISINYRTEIDKPSTSTSTVSDVPRDLEVVAATPTSLLISWRHPHFPTRYYRITYGETGGNSPVQEFTVPLQPPTATISGLKPGVDYTITVYAVTDGRNGRLLSIPISINYRTEIDKPSQHHHHHH
notes: also called 385A08-Fn-V2B (Ser tail); 385A08-Fn-V2B (with his tag)
